Patent US10919943B2, “Mutant proteins enabling agrochemical control of plant gene expression” (The Regents of the University of California, priority 2016, dated 2021)

Test system: HAB1
Test: Yeast two hybrid of pBD-PYR1 site saturation mutants with pACT-HAB1 on 10 μM ABA, β-galactosidase staining
Type: cell-based, Arabidopsis
Design: key: x: Mutations in PYR1 that disrupt ABA-induced binding to PYR1 to HAB1
Conditions: S. cerevisiae Y190, 10 μM ABA; dead = lack of visible staining in comparison to wild type control
Description: To systematically identify mutations in PYR1 that disrupt its binding to HAB1, we utilized a collection of saturating mutations that contain all possible single amino acid substitutions in 24 conserved interface residues involved in binding HAB1, which was previously constructed for the purpose of engineering constitutively active ABA receptor variants (Mosquna et al., 2011). The interface residues previously mutagenized in this collection are the following: H60, F61, I62, K63, I84, S85, G86, L87, P88, A89, H115, R116, L117, P148, G150, N151, D154, D155, T156, M158, F159, T162, L166, K170. This set was made by mutagenizing a pBD-PYR1 template that encodes a GAL4-DNA binding domain fusion to PYR1, which can be used to assess receptor-HAB1 binding in S. cerevisiae strains co-transformed with pACT-HAB1, which expresses a GAL4 activation domain fusion to HAB1. Mutant pBD-PYR1 clones from the collection are maintained in S. cerevisiae strain Y190 co-transformed with pACT-HAB1. The test strains were spotted onto agar plates containing synthetic dextrose dropout media lacking leucine and tryptophan [SD (-Leu, -Trp)] medium supplemented with 10 μM ABA. After incubating the test plates at 30° C. for two days, colonies were chloroform lysed and stained to reveal […] expression levels and “dead” mutants were defined by lack of visible staining in comparison to a wild type control. This effort defined 237 mutations that disrupt ABA-induced binding of PYR1 to HAB1 (Table 1). Premade yeast drop out supplements (Clontech) were utilized in this and other examples for media preparation, amino acids and other standard chemicals were purchased from Sigma-Aldrich (USA). The naturally occurring (+)-ABA isomer was used in all experiments and purchased from Biosynth Ag (Switzerland).

B1: P88S: PYR1 mutant (protein, UniProt O49686 1-191, looked up, variant P88S)
Abscisic acid receptor PYR1: MPSELTPEERSELKNSIAEFHTYQLDPGSCSSLHAQRIHAPPELVWSIVRRFDKPQTYKHFIKSCSVEQNFEMRVGCTRDVIVISGLSANTSTERLDILDDERRVTGFSIIGGEHRLTNYKSVTTVHRFEKENRIWTVVLESYVVDMPEGNSEDDTRMFADTVVKLNLQKLATVAEAMARNSGDGSGSQVT
- Mutations in PYR1 that disrupt ABA-induced binding to PYR1 to HAB1: x

B2: P88I: PYR1 mutant (protein, UniProt O49686 1-191, looked up, variant P88I)
Abscisic acid receptor PYR1: MPSELTPEERSELKNSIAEFHTYQLDPGSCSSLHAQRIHAPPELVWSIVRRFDKPQTYKHFIKSCSVEQNFEMRVGCTRDVIVISGLIANTSTERLDILDDERRVTGFSIIGGEHRLTNYKSVTTVHRFEKENRIWTVVLESYVVDMPEGNSEDDTRMFADTVVKLNLQKLATVAEAMARNSGDGSGSQVT
- Mutations in PYR1 that disrupt ABA-induced binding to PYR1 to HAB1: x

B3: P88D: PYR1 mutant (protein, UniProt O49686 1-191, looked up, variant P88D)
Abscisic acid receptor PYR1: MPSELTPEERSELKNSIAEFHTYQLDPGSCSSLHAQRIHAPPELVWSIVRRFDKPQTYKHFIKSCSVEQNFEMRVGCTRDVIVISGLDANTSTERLDILDDERRVTGFSIIGGEHRLTNYKSVTTVHRFEKENRIWTVVLESYVVDMPEGNSEDDTRMFADTVVKLNLQKLATVAEAMARNSGDGSGSQVT
- Mutations in PYR1 that disrupt ABA-induced binding to PYR1 to HAB1: x

B4: P88F: PYR1 mutant (protein, UniProt O49686 1-191, looked up, variant P88F)
Abscisic acid receptor PYR1: MPSELTPEERSELKNSIAEFHTYQLDPGSCSSLHAQRIHAPPELVWSIVRRFDKPQTYKHFIKSCSVEQNFEMRVGCTRDVIVISGLFANTSTERLDILDDERRVTGFSIIGGEHRLTNYKSVTTVHRFEKENRIWTVVLESYVVDMPEGNSEDDTRMFADTVVKLNLQKLATVAEAMARNSGDGSGSQVT
- Mutations in PYR1 that disrupt ABA-induced binding to PYR1 to HAB1: x

B5: A89N: PYR1 mutant (protein, UniProt O49686 1-191, looked up, variant A89N)
Abscisic acid receptor PYR1: MPSELTPEERSELKNSIAEFHTYQLDPGSCSSLHAQRIHAPPELVWSIVRRFDKPQTYKHFIKSCSVEQNFEMRVGCTRDVIVISGLPNNTSTERLDILDDERRVTGFSIIGGEHRLTNYKSVTTVHRFEKENRIWTVVLESYVVDMPEGNSEDDTRMFADTVVKLNLQKLATVAEAMARNSGDGSGSQVT
- Mutations in PYR1 that disrupt ABA-induced binding to PYR1 to HAB1: x

B6: P88G: PYR1 mutant (protein, UniProt O49686 1-191, looked up, variant P88G)
Abscisic acid receptor PYR1: MPSELTPEERSELKNSIAEFHTYQLDPGSCSSLHAQRIHAPPELVWSIVRRFDKPQTYKHFIKSCSVEQNFEMRVGCTRDVIVISGLGANTSTERLDILDDERRVTGFSIIGGEHRLTNYKSVTTVHRFEKENRIWTVVLESYVVDMPEGNSEDDTRMFADTVVKLNLQKLATVAEAMARNSGDGSGSQVT
- Mutations in PYR1 that disrupt ABA-induced binding to PYR1 to HAB1: x

B7: P88V: PYR1 mutant (protein, UniProt O49686 1-191, looked up, variant P88V)
Abscisic acid receptor PYR1: MPSELTPEERSELKNSIAEFHTYQLDPGSCSSLHAQRIHAPPELVWSIVRRFDKPQTYKHFIKSCSVEQNFEMRVGCTRDVIVISGLVANTSTERLDILDDERRVTGFSIIGGEHRLTNYKSVTTVHRFEKENRIWTVVLESYVVDMPEGNSEDDTRMFADTVVKLNLQKLATVAEAMARNSGDGSGSQVT
- Mutations in PYR1 that disrupt ABA-induced binding to PYR1 to HAB1: x

B8: P88W: PYR1 mutant (protein, UniProt O49686 1-191, looked up, variant P88W)
Abscisic acid receptor PYR1: MPSELTPEERSELKNSIAEFHTYQLDPGSCSSLHAQRIHAPPELVWSIVRRFDKPQTYKHFIKSCSVEQNFEMRVGCTRDVIVISGLWANTSTERLDILDDERRVTGFSIIGGEHRLTNYKSVTTVHRFEKENRIWTVVLESYVVDMPEGNSEDDTRMFADTVVKLNLQKLATVAEAMARNSGDGSGSQVT
- Mutations in PYR1 that disrupt ABA-induced binding to PYR1 to HAB1: x

B9: P88Y: PYR1 mutant (protein, UniProt O49686 1-191, looked up, variant P88Y)
Abscisic acid receptor PYR1: MPSELTPEERSELKNSIAEFHTYQLDPGSCSSLHAQRIHAPPELVWSIVRRFDKPQTYKHFIKSCSVEQNFEMRVGCTRDVIVISGLYANTSTERLDILDDERRVTGFSIIGGEHRLTNYKSVTTVHRFEKENRIWTVVLESYVVDMPEGNSEDDTRMFADTVVKLNLQKLATVAEAMARNSGDGSGSQVT
- Mutations in PYR1 that disrupt ABA-induced binding to PYR1 to HAB1: x

B10: A89P: PYR1 mutant (protein, UniProt O49686 1-191, looked up, variant A89P)
Abscisic acid receptor PYR1: MPSELTPEERSELKNSIAEFHTYQLDPGSCSSLHAQRIHAPPELVWSIVRRFDKPQTYKHFIKSCSVEQNFEMRVGCTRDVIVISGLPPNTSTERLDILDDERRVTGFSIIGGEHRLTNYKSVTTVHRFEKENRIWTVVLESYVVDMPEGNSEDDTRMFADTVVKLNLQKLATVAEAMARNSGDGSGSQVT
- Mutations in PYR1 that disrupt ABA-induced binding to PYR1 to HAB1: x

B11: A89M: PYR1 mutant (protein, UniProt O49686 1-191, looked up, variant A89M)
Abscisic acid receptor PYR1: MPSELTPEERSELKNSIAEFHTYQLDPGSCSSLHAQRIHAPPELVWSIVRRFDKPQTYKHFIKSCSVEQNFEMRVGCTRDVIVISGLPMNTSTERLDILDDERRVTGFSIIGGEHRLTNYKSVTTVHRFEKENRIWTVVLESYVVDMPEGNSEDDTRMFADTVVKLNLQKLATVAEAMARNSGDGSGSQVT
- Mutations in PYR1 that disrupt ABA-induced binding to PYR1 to HAB1: x

B12: A89R: PYR1 mutant (protein, UniProt O49686 1-191, looked up, variant A89R)
Abscisic acid receptor PYR1: MPSELTPEERSELKNSIAEFHTYQLDPGSCSSLHAQRIHAPPELVWSIVRRFDKPQTYKHFIKSCSVEQNFEMRVGCTRDVIVISGLPRNTSTERLDILDDERRVTGFSIIGGEHRLTNYKSVTTVHRFEKENRIWTVVLESYVVDMPEGNSEDDTRMFADTVVKLNLQKLATVAEAMARNSGDGSGSQVT
- Mutations in PYR1 that disrupt ABA-induced binding to PYR1 to HAB1: x

B13: P88K: PYR1 mutant (protein, UniProt O49686 1-191, looked up, variant P88K)
Abscisic acid receptor PYR1: MPSELTPEERSELKNSIAEFHTYQLDPGSCSSLHAQRIHAPPELVWSIVRRFDKPQTYKHFIKSCSVEQNFEMRVGCTRDVIVISGLKANTSTERLDILDDERRVTGFSIIGGEHRLTNYKSVTTVHRFEKENRIWTVVLESYVVDMPEGNSEDDTRMFADTVVKLNLQKLATVAEAMARNSGDGSGSQVT
- Mutations in PYR1 that disrupt ABA-induced binding to PYR1 to HAB1: x

B14: A89Q: PYR1 mutant (protein, UniProt O49686 1-191, looked up, variant A89Q)
Abscisic acid receptor PYR1: MPSELTPEERSELKNSIAEFHTYQLDPGSCSSLHAQRIHAPPELVWSIVRRFDKPQTYKHFIKSCSVEQNFEMRVGCTRDVIVISGLPQNTSTERLDILDDERRVTGFSIIGGEHRLTNYKSVTTVHRFEKENRIWTVVLESYVVDMPEGNSEDDTRMFADTVVKLNLQKLATVAEAMARNSGDGSGSQVT
- Mutations in PYR1 that disrupt ABA-induced binding to PYR1 to HAB1: x

B15: P88C: PYR1 mutant (protein, UniProt O49686 1-191, looked up, variant P88C)
Abscisic acid receptor PYR1: MPSELTPEERSELKNSIAEFHTYQLDPGSCSSLHAQRIHAPPELVWSIVRRFDKPQTYKHFIKSCSVEQNFEMRVGCTRDVIVISGLCANTSTERLDILDDERRVTGFSIIGGEHRLTNYKSVTTVHRFEKENRIWTVVLESYVVDMPEGNSEDDTRMFADTVVKLNLQKLATVAEAMARNSGDGSGSQVT
- Mutations in PYR1 that disrupt ABA-induced binding to PYR1 to HAB1: x

B16: P88H: PYR1 mutant (protein, UniProt O49686 1-191, looked up, variant P88H)
Abscisic acid receptor PYR1: MPSELTPEERSELKNSIAEFHTYQLDPGSCSSLHAQRIHAPPELVWSIVRRFDKPQTYKHFIKSCSVEQNFEMRVGCTRDVIVISGLHANTSTERLDILDDERRVTGFSIIGGEHRLTNYKSVTTVHRFEKENRIWTVVLESYVVDMPEGNSEDDTRMFADTVVKLNLQKLATVAEAMARNSGDGSGSQVT
- Mutations in PYR1 that disrupt ABA-induced binding to PYR1 to HAB1: x

B17: A89L: PYR1 mutant (protein, UniProt O49686 1-191, looked up, variant A89L)
Abscisic acid receptor PYR1: MPSELTPEERSELKNSIAEFHTYQLDPGSCSSLHAQRIHAPPELVWSIVRRFDKPQTYKHFIKSCSVEQNFEMRVGCTRDVIVISGLPLNTSTERLDILDDERRVTGFSIIGGEHRLTNYKSVTTVHRFEKENRIWTVVLESYVVDMPEGNSEDDTRMFADTVVKLNLQKLATVAEAMARNSGDGSGSQVT
- Mutations in PYR1 that disrupt ABA-induced binding to PYR1 to HAB1: x

B18: P88T: PYR1 mutant (protein, UniProt O49686 1-191, looked up, variant P88T)
Abscisic acid receptor PYR1: MPSELTPEERSELKNSIAEFHTYQLDPGSCSSLHAQRIHAPPELVWSIVRRFDKPQTYKHFIKSCSVEQNFEMRVGCTRDVIVISGLTANTSTERLDILDDERRVTGFSIIGGEHRLTNYKSVTTVHRFEKENRIWTVVLESYVVDMPEGNSEDDTRMFADTVVKLNLQKLATVAEAMARNSGDGSGSQVT
- Mutations in PYR1 that disrupt ABA-induced binding to PYR1 to HAB1: x

B19: P88E: PYR1 mutant (protein, UniProt O49686 1-191, looked up, variant P88E)
Abscisic acid receptor PYR1: MPSELTPEERSELKNSIAEFHTYQLDPGSCSSLHAQRIHAPPELVWSIVRRFDKPQTYKHFIKSCSVEQNFEMRVGCTRDVIVISGLEANTSTERLDILDDERRVTGFSIIGGEHRLTNYKSVTTVHRFEKENRIWTVVLESYVVDMPEGNSEDDTRMFADTVVKLNLQKLATVAEAMARNSGDGSGSQVT
- Mutations in PYR1 that disrupt ABA-induced binding to PYR1 to HAB1: x
